Assay results taken from paper PMC6026696, “A broader active site in Pyrococcus horikoshii CoA disulfide reductase accommodates larger substrates and reveals evidence of subunit asymmetry” (FEBS Open Bio, 2018).

Experiments:
[1] = biological target: T1, Pyrococcus horikoshii coenzyme A-disulfide reductase (phCoADR) (Pyrococcus horikoshii, UniProt O58308, C48S/Y65A/Y66A/P67G/H367G); assay: anaerobic NADH titration, UV-visible spectra; format: biochemical; settings: 50 mM potassium phosphate, pH 7.5, room temperature
T1 construct: gene PH0572; recombinant in E. coli BL21(DE3); wild type from pET24d; quad mutant codon-optimized gene in pET21b+ with C-terminal His tag; FAD-containing homodimer

[2] = biological target: T2, Pyrococcus horikoshii coenzyme A-disulfide reductase (phCoADR) (Pyrococcus horikoshii, UniProt O58308, Y65A/Y66A/P67G/H367G); assay: X-ray crystal structure, […] Å; format: binding; settings: tightly bound CoA in substrate channel; mixed disulfide with C48 in oxidized enzyme (covalent)
T2 construct: gene PH0572; recombinant in E. coli BL21(DE3); wild type from pET24d; quad mutant codon-optimized gene in pET21b+ with C-terminal His tag; FAD-containing homodimer

purified protein [3] = substrate: NC(=O)C1=CN([C@@H]2O[C@H](COP(=O)(O)OP(=O)(O)OC[C@H]3O[C@@H](n4cnc5c(N)ncnc54)[C@H](O)[C@@H]3O)[C@@H](O)[C@H]2O)C=CC1; assay: purified protein; format: biochemical, Pyrococcus horikoshii; settings: 100 μM CoA disulfide, 75 °C, 50 mM potassium phosphate, pH 7.5
purified protein [4] = substrate: CC(C)(COP(=O)(O)OP(=O)(O)OC[C@H]1O[C@@H](n2cnc3c(N)ncnc32)[C@H](O)[C@@H]1OP(=O)(O)O)[C@@H](O)C(=O)NCCC(=O)NCCSSCCNC(=O)CCNC(=O)[C@H](O)C(C)(C)COP(=O)(O)OP(=O)(O)OC[C@H]1O[C@@H](n2cnc3c(N)ncnc32)[C@H](O)[C@@H]1OP(=O)(O)O; assay: purified protein; format: biochemical, Pyrococcus horikoshii; settings: 100 μM NADPH, 75 °C, 50 mM potassium phosphate, pH 7.5
purified protein [5] = substrate: NC(=O)C1=CN([C@@H]2O[C@H](COP(=O)(O)OP(=O)(O)OC[C@H]3O[C@@H](n4cnc5c(N)ncnc54)[C@H](OP(=O)(O)O)[C@@H]3O)[C@@H](O)[C@H]2O)C=CC1; assay: purified protein; format: biochemical, Pyrococcus horikoshii; settings: 100 μM CoA disulfide, 75 °C, 50 mM potassium phosphate, pH 7.5

T1 sequence (O58308 whole entry C48S/Y65A/Y66A/P67G/H367G): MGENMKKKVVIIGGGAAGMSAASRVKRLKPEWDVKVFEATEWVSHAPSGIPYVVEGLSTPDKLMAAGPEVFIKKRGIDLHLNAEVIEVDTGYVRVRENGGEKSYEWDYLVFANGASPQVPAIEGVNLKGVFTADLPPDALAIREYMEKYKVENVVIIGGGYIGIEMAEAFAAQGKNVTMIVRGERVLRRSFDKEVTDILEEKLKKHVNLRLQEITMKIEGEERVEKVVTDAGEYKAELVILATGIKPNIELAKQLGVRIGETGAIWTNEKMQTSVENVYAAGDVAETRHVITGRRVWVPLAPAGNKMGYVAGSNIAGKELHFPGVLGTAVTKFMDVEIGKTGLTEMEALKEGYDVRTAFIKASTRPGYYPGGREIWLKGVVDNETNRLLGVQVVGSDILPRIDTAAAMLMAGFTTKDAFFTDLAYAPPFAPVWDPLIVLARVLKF

## NC(=O)C1=CN([C@@H]2O[C@H](COP(=O)(O)OP(=O)(O)OC[C@H]3O[C@@H](n4cnc5c(N)ncnc54)[C@H](O)[C@@H]3O)[C@@H](O)[C@H]2O)C=CC1 [NADH]
[1]
  anaerobic NADH titration, UV-visible spectra: Anaerobic titration of the quad‐C48S mutant showed immediate reduction of FAD

## CC(C)(COP(=O)(O)OP(=O)(O)OC[C@H]1O[C@@H](n2cnc3c(N)ncnc32)[C@H](O)[C@@H]1OP(=O)(O)O)[C@@H](O)C(=O)NCCC(=O)NCCS [CoA]
[2]
  X-ray crystal structure, 3.6 Å: CoA is depicted as sticks where carbon is green, nitrogen blue, oxygen red

B1: Pyrococcus horikoshii coenzyme A-disulfide reductase (phCoADR) (Pyrococcus horikoshii OT3) (protein)
chain: MGENMKKKVVIIGGGAAGMSAASRVKRLKPEWDVKVFEATEWVSHAPCGIPYVVEGLSTPDKLMYYPPEVFIKKRGIDLHLNAEVIEVDTGYVRVRENGGEKSYEWDYLVFANGASPQVPAIEGVNLKGVFTADLPPDALAIREYMEKYKVENVVIIGGGYIGIEMAEAFAAQGKNVTMIVRGERVLRRSFDKEVTDILEEKLKKHVNLRLQEITMKIEGEERVEKVVTDAGEYKAELVILATGIKPNIELAKQLGVRIGETGAIWTNEKMQTSVENVYAAGDVAETRHVITGRRVWVPLAPAGNKMGYVAGSNIAGKELHFPGVLGTAVTKFMDVEIGKTGLTEMEALKEGYDVRTAFIKASTRPHYYPGGREIWLKGVVDNETNRLLGVQVVGSDILPRIDTAAAMLMAGFTTKDAFFTDLAYAPPFAPVWDPLIVLARVLKF
notes: recombinant in E. coli BL21(DE3); wild type from pET24d; quad mutant codon-optimized gene in pET21b+ with C-terminal His tag; FAD-containing homodimer
Purified protein [3]
  Km: 73 ± 12 µM
  kcat: 2.3 ± 0.3 s⁻¹
Purified protein [4]
  Km: 52 ± 1 µM
  kcat: 4.4 ± 1.3 s⁻¹
Purified protein [5]
  kcat: 5.8 ± 0.2 s⁻¹

B2: Pyrococcus horikoshii coenzyme A-disulfide reductase (phCoADR) (Pyrococcus horikoshii OT3; H367G/P67G/Y65A/Y66A) (protein)
chain: MGENMKKKVVIIGGGAAGMSAASRVKRLKPEWDVKVFEATEWVSHAPCGIPYVVEGLSTPDKLMAAGPEVFIKKRGIDLHLNAEVIEVDTGYVRVRENGGEKSYEWDYLVFANGASPQVPAIEGVNLKGVFTADLPPDALAIREYMEKYKVENVVIIGGGYIGIEMAEAFAAQGKNVTMIVRGERVLRRSFDKEVTDILEEKLKKHVNLRLQEITMKIEGEERVEKVVTDAGEYKAELVILATGIKPNIELAKQLGVRIGETGAIWTNEKMQTSVENVYAAGDVAETRHVITGRRVWVPLAPAGNKMGYVAGSNIAGKELHFPGVLGTAVTKFMDVEIGKTGLTEMEALKEGYDVRTAFIKASTRPGYYPGGREIWLKGVVDNETNRLLGVQVVGSDILPRIDTAAAMLMAGFTTKDAFFTDLAYAPPFAPVWDPLIVLARVLKF
notes: as for B1
Purified protein [3]
  Km: 75 ± 6 µM
  kcat: 8.1 ± 1.4 s⁻¹
Purified protein [4]
  Km: 57.0 ± 6.4 µM
  kcat: 18.8 ± 2.8 s⁻¹
Purified protein [5]
  Km: 16.4 ± 4.9 µM
  kcat: 21.6 ± 2.3 s⁻¹
